Reference: the DeepSol protein solubility set

Test: soluble on expression in E. coli; label from the status in PepcDB or PDB records

| Sequence | soluble on expression in E. coli |
| --- | --- |
| MSLDRQLWRQFPQVEPQLTALQDYLLRTVQLDNQPIHHKILALLKSGGKLLRPGYFYLFSTFGNAATPAQLQAGAAAIEILHVGTLIHDDVIDDSPTRRGVRTIQMTYGQRNAIYAGDFMFTVYFDQVLKSTTDRSLIQNHIDAMHRILQGELHQMDLNYREDITLDAYLNEIAGKTAELFALSCYQGAQLAGAPQSVIDRTRDIGIAIGCAYQMLDDILDYAGDPKRTQKPVLEDLRSGVYSLPLLLSLSHAPRDFHKLLKKKQAMTLEDIKHVQALVAQYDGVGAAKQLAQDYTDRALTLIQQLPVGSAQQSLEQLTRLLLRRDHEGHHHHHH | soluble |
| MTSITPVTLANCEDEPIHVPGAIQPHGALVTLRADGMVLAASENIQALLGFVASPGSYLTQEQVGPEVLRMLEEGLTGNGPWSNSVETRIGEHLFDVIGHSYKEVFYLEFEIRTADTLSITSFTLNAQRIIAQVQLHNDTASLLSNVTDELRRMTGYDRVMAYRFRHDDSGEVVAESRREDLESYLGQRYPASDIPAQARRLYIQNPIRLIADVAYTPMRVFPALNPETNESFDLSYSVLRSVSPIHCEYLTNMGVRASMSISIVVGGKLWGLFSCHHMSPKLIPYPVRMSFQIFSQVCSAIVERLEQGRIAELLRVSTERRLALARRARDADDLFGALAHPDDGIAALIPCDGALVMLGGRTLSIRGDFERQAGNVLQRLQRDPERDIYHTDNWPQPSEDSPDGGDCCGVLAIRFHRQESGWIFWFRHEEVHRIRWGGKPEKLLTIGPSGPRLTPRGSFEAWEEVVRGHSTPWSETDLAIAEKLRLDLMELCLNHALEHHHHHH | soluble |
| EQHADPICNKPCKTHDDCSGAWFCQACWNSARTCGPYVG | soluble |
| MRGQNRRGYRNIEGRLSLSSHSSHSSPRQTHVTNLRPAEIKVVQDVVDGCYVATDDVLNLSNFSKNTEFVERDMLMCLTKTRVMSVVLQHIGYKYPRISGISFSNNRLCHLDHLSSLSSISKFLKFLDLSHNQISSGEELKKLGTIPVETVFFEGNPVCEKFVQCAEYANFIQKTFPKCSNLDGMEVEPKPDHNRIEQIIPFRNGYYGSDEVRTLVEEFIITYYKIYDGADGQQTRKQLLDAYDTNNSTFTHTVVCLWDPIKFVMYPDSESYRMYLRTSHNVLNQEYFAANRASRISHGAMDIVVALSRLPATIHLMDTFVVDVFLVSATLLGFTLHGTFRDGPSAIKPENTEEHDNYFTRTFMVAPRGEGKVAIVSDQLFISSMSKRRGDQYRMLVETATDIDQ | not soluble |
| LGVDRAKQIQALAKGTFGINIALDAFTLELRLLVEQIEFIEEQISVIEEAIDQVMEEMRPSKDTAYRHVLETIPGIGPVLAASIIGEIGDINRFPNAKALVAYAGLDATVRSSGQFEGTRNRISKRGSPVLRHSIWLAAVSARRFNPEMKEFFEKKRSEGKHTLVATGAVARRMVHLIYSLWKDNRPFDPNYQWSPTNSR | soluble |
| MFFDDTYLDYKARVSYSLFCAKDFNETAAFIKANRILMTSTELAAYMLKPENYKYAIIARIKNSMVGIVLFTDFESEVFINHLYVSPIHRFKGIGSNLLKELKAFMGQRTVSYIDTSNNYMPWMEVLDVSKKAAVINQLGSFYKCSK | not soluble |
| GPGSMYQLWGGSPFKPHKQNPSIMIDKSGTEVRLIGESRDVLQTLATNPKWANTYLAISSTCDVPSWARELLGTFEFTDYAGKTVPMHSLFSDRIEIYKANKAKQHEMILQKVNKVDPSVSEYAQMLFFDNQTDNVRHVSGIGVTSCYCPSGMTKGTFEKGLEMWRRAAAVEDVRYDRVVECRA | not soluble |
| MAHHHHHHMVRKVWIGQGDVVLVSKRSFNKNDIVDVIHRYNPAEVRALVKDEVIPRDFRSSDERDAKNAHSDYVFVAENDDDGGADDDDQNVLDRNKVVLDDPLATFDEL | not soluble |
| MGSDKIHHHHHHMEKILDLLMSFVKEDEGKLDLASFPLRNTTAGAHLLLKTENVVASGIEVSRMFLEKMGLLSKFNVEDGEYLEGTGVIGEIEGNTYKLLVAERTLLNVLSVMFSVATTTRRFAEKLKHAKIAATRKILPGLGVLQKIAVVHGGGDPHRLDLSGCVMIKDNHLKMYGSAERAVQEVRKIIPFTTKIEVEVENLEDALRAVEAGADIVMLDNLSPEEVKDISRRIKDINPNVIVEVSGGITEENVSLYDFETVDVISSSRLTLQEVFVDLSLEIQR | soluble |
| MWRKLTIIVVLLCLAGYAAYEQFGKSDQAAQGEQEKSEAAMKEMIASNGIEIGKSAPDFELTKLDGTNIKLSDLKGKKVILNFWATWCGPCQQEMPDMEAFYKKHKDNVEILAINYTPSEKGGGVEKVSNFAKEKGITFPILLDKNIDVTTAYKVITIPTSYFIDTKGVIQDKFIGPMTQKEMEKRIAKLK | not soluble |
| MGSDKIHHHHHHMSIQVKALSKRIDNREILRGITFTWQPGRIVGLVGRNGVGKTTLFRTMADHYLADEGELVIEGQSTLQQPYCRQKLFYIDTQRHFFGGRRLRQIITTYALAYDDFDQSQLTALLAAEHLSTKSYYQRLSKGQQMLFQILLALASHVPYIILDEPFDGLDIIVRERIVAYMVEEVAEHGVSFLISSHNLDELDGLCDQVLFLQHHELVADYDLESLRATARKFQLVFADKHIPAVVKEHGQLIKVYGRVLEVYFADYTPTIETALQQTQPLMMAVQPLTITDVFRVKLGDRQAVWGGV | not soluble |
| MGSDKIHHHHHHMTRSVLVDLDAVLSIARLGSFRAAALDLGMSTTALSNAIAKLEQRLGVRLFNRTTRSVSLTDAGKTFAERVGPAMMDIHDAMLSVQSLQETPAGTLRINAFATAAREVMEPLILSFMQRYPQVHIDLVTEGRIVDIVAAGFDLGLRPADLVPADMIAVSLGLKRSNAVVASPDFLRIHGIPTVPADLYRFRCIRARLPNNALFRWKFEKDGDAMQIDVQGSITLDESSLVRIAAQNGVGLGYVMEADVREDIAAGRLVRVLEDWTPALAPLALYYPGRKNPPAAFSAFIQAARNFANGG | not soluble |
| MGSDKIHHHHHHMKVLVVDNSRWWGGAEKNLQTLVDNRSNAIEFNVLSDYPMSHNITYRDFCGVRYRFDNSYFIRYLDNKYQIKGMRIFRLIYKSLYLIPSLVRYNPDIVHFNLYRSSDILDIIVCKILRKKVVLHIRSLANRIKIAPLTIKLADAVICVSKSVKQGFSFTGNKYHVIYNGIDSKYYHLVPQDQAREKLGINLTSFVIGSIGNLEREKGHDVAVKALKKIIDDGNVVVALIIVGKDSTINESETKRILTLSKDLGVQGHIKIFSISHKDIHYVYSACDIVLTLCIDGEAFGMIPLEAAMHNRPVIATNVGACRETIIHNQTGLLCEPNSPVALVQAIDTIMKDKKYCDQLTESARNRVLHKYSADAYRDSVYKIYITITKENKRKL | not soluble |
| MTSNKNVKTLDEAIRELTRAKAILDSARPTAVNLVWATSRMLTLAKNAVENGNAKTINELIDLMKVEAKRIFDEEYDAEIQMGLYGLEKLNDSDT | not soluble |
| MKLNNHNLKEIYSLSLNELKEELFKLGLKSFISKQIYSWIYQKRIFNFDKFSNIAKNNVIILKENFSNNLLKINSYQSNSDGSIKFEFLTDKNLIINCMIIKFKNGFLIKINPFGINFKKEIINLSTNELVLQILLIQQFLDQRKLGNITNVIIKGLQDSLLNMDVVSNFINIINNENGLNIGKRKIAVWTSGINVDLIKWGQLQNQIELIISMNASNSLIYQKIMLKKLNQNWSFLKLIEQIKAYTKITNNRVVLEYLLIDKINDDLNYANELVELLKNILCYVLLIPYNLNNYRTSANLDDFFNILSVNKIRISKRIRKSNDLDISFKQLKIKELEHHHHHH | not soluble |
| MKQKEMIVMSILVKSVSFDDYRNTQLNEKCANFLQSAEMAKLQESQDHIEKVEALVFERDGLRVAQAIVVYKKSFRVFKKALLLHGPLLDYHSSCWFDREILEALILYLRKKNIATLSIHPYLTNLIRNEKLENIEVDKARDVLEVFETLGFEHSLDSEQSLVVNQMFVKSIESFASSDEILAAFSPSLKRDLKKFTALNVKTEELDEHQLDQFYDILSRTAERKGFSVHPLVYFQNLKKYFGKSAKFMLAYLDCPAYLAYLDENIQSFEAKIQDLKEGPQKKRTKGQIADAEDQLRSYYKRLEQFKSYQIKTDKLPLSAYLFMDYGPEIVSFYGGNDEAYLNFGGAVLLHWEMLKYAKSKSKKHFNFYGTIETEAASSGKGNFNFKRQFGGQLETLVGSFDKTLNPFYDILKKTLGKD | not soluble |
| SNAGMTGFVINTRRAPFDDWRLREALLLAFNFEFINDTVTGGVMPRITSYFSGTDLAYRPGTASGREAELLAPFAADLPPGTLEGYALPQGDGTARNRTNLRRAAQFLEQAGFRIEQGQLLGPDGAPLALRFLLRQGDSDMQTVLEIYTRALERLGIAAQIEKVDNAQYTARVAELDFDLTPFRRDLSLSPGNEQRLYWGSHSAGQPGTRNLMGAASPAIDAMIDRMLAATTEDELTAATRALDRVLTAGRYVIPIWR | soluble |
| MSDNALSPQKNHRRLAETLVDRFAQRMRDGVLVRGEKLPSEIHIMEAEGVSRTVVRDALSRMQAAGLVETRHGVGTFVLDMPPPEGFSVGPATIASVADVLNLLEFRLSLEVEAAGLAAQRRSPEALLELKRAFDALLEGPQKSGTTINADFQFHLKIAKASGNAYLIDIMKHLGTKLIPRTRMNSAYTGQSDRSAYLAGINAEHRQIYNAIAEGNVDAARAAMYLHLNGSRMRLRRTQALYSD | not soluble |
| MHHIETTKLSRRAFLKKLTRTSFSAALMMAAASGYARWIEPAELTVTHHALSHPLIPKSFAGVKLLQFSDLHLGHYYGLERFYRIMGRINELGPDLVVFTGDLLHEANRYPHVDAVAEALAGVRAPLGKFCIYGNHDHGGYGTDIYRRLMERAGFRVLVNEHALVRRGHGAIAIAGSDDMMLGRPDWSKMTNGIPRATYTIALVHEPDGAIEARRFPIHVQLSGHSHGGQIQLPFIGPLITPPLSERYYEGFYHVGGLLLYVNRGLGTTRVPLRFFAPPELTVFSLAPG | not soluble |
| MATAAVTDDIEEGARKAPALIRYLAEGEYVTRRYVSQGAEMNTGEYADYECVVRDGMPIRDHFTLDVHGFALGRHRSAVADFHDKPTVDALYLDEVEELVTRLCGAARTAAQGWMIRTSADLTERAKQKVQGYQHSGGIQPPAGEAHVDYNEVTGRRAAARVYADRFPDGPGYKRYICFSLWRTFSPGPQDWPLAVCDGRTVRDEETASNTLFVVDEFPVGDALTAPVEGEDQMIAATIFRHRDRHRWWYFSNMAADDVLLFKFQDSDHSVTWRCPHTAFHDTSLPDAKTRSSIEVRCIAFFELEHHHHHH | soluble |
| MIEINNLSKRYRNKQIFNHLTMSFDSNRLTVLLGDNGAGKSTLLRMIAGIEKANDGTINYFGEKWNQRQIQNHIGYVPQDIALFEHMTVAENIKFFKSLCKNPINDTTINEYLQQLNFDDTSAKVSTLSGGNKRKINILVGLLGQPRILILDEPTVGIDLKSRHDIHQLLNIMKSKCLIILTTHHLDEVEALADDIKLIGQDPFYQHVLEDKQWTYTYY | not soluble |
| MLRHNVPVRRDLDQIAANNGFDFHIIDNEIYWDESRAYRFTLRQIEEQIEKPTAELHQMCLEVVDRAVKDEEILTQLAIPPLYWDVIAESWRARDPSLYGRMDFAWCGNAPVKLLEYNADTPTSLYESAYFQWLWLEDARRSGIIPRDADQYNAIQERLISRFSELYSRELFYFCCCQDTDEDRSTVLYLQDCAQQAGQESRFIYIEDLGLGVGGVLTDLDDNVIQRAFKLYPLEWMMRDDNGPLLRKRREQWVEPLWKSILSNKGLMPLLWRFFPGHPNLLASWFEGEKSQIAAGESYVRKPIYSREGGNVTIFDGQNNVVDHADGDYADEPMIYQAFQPLPRFGDSYTLIGSWIVDDEACGMGIREDNTLITKDTSRFVPHYIAG | not soluble |
| MTEADYGEMVRREKCIMFVKRFCPYSIRARELLHDRGVGCKIIEVDNNLDAYSFAKRNHSTFPVFFLDGDLVEGGCEKLLVLSDSNLPPFDKSPLLTQNREPVLLD | not soluble |
